Data from the supplement of paper PMC10567573.

B1: CAMK2A (parent)
chain: ILLVGYPPFWDEDQHRLYKQIKAG

Variants of: B1
Assay: protein stability index of a GFP-peptide fusion (GPS, HEK-293T) (PSI 1-6); higher = more stable
Conditions: c terminus: a fixed tail appended
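Note: lentivirally expressed fusions sorted by FACS into six bins by GFP to DsRed ratio, PSI derived from sequencing read proportions per bin multiplied by bin number.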

Protein stability index of substitutions, site by site:
I1: M 1.8; N 2.03; Y 1.73; P 2.27; R 2.54; V 2.15; L 2.05; S 2.33; F 1.72; T 1.58; G 2.21; K 2.23; Q 1.82
W10: H 1.56; F 2.27; K 1.6; Q 2.27; L 2.54; C 1.64; D 1.69; A 1.73; T 2.34; E 1.78; N 1.71; V 2.05; S 2.45; R 1.52; I 2.71; G 1.86; P 3.75; Y 2.05; M 1.18
Y6: L 1.61; E 2.1; H 1.28; M 2.36; A 1.67; T 1.77; P 2.19; F 2.73; D 2.12; N 1.93; S 1.43; G 2.23; I 5.07; C 1.62; Q 2.17; W 3.13; V 1.45; K 1.39
G5: E 3.74; W 1.53; V 3.83; H 2.32; F 3.4; M 2.53; P 3.17; Y 1.49; T 2.74; D 1.55; R 2.65; N 1.99; K 2.35; Q 2.37; A 2.27
P7: I 2.46; D 1.39; H 3.75; V 2.63; E 1.43; W 2.73; A 1.47; L 2.89; G 2.31; Y 4.41; T 2.56; F 2.85; M 2.9; Q 1.28
P8: V 2.96; Y 1.98; C 4.72; T 1.87; A 1.83; M 1.89; R 3.38; N 4.23; L 1.81; K 2.06; D 1.67; E 2.1; F 2.95
L3: W 2.4; F 2.68; E 2.19; S 2.4; I 2.58; V 2.35; G 1.88; T 1.97; K 1.58; H 2.24; A 1.65; D 2.63; N 2.31; P 2.58; M 1.72; Q 1.79; Y 1.74
L2: Q 1.42; G 2.4; M 3.1; S 1.75; V 1.67; K 1.63; A 1.6; T 1.86; P 1.86; D 2.12; Y 2.93; N 1.52; C 2.11; H 1.72; I 2.57; F 1.3; E 2.04
V4: L 2.66; A 1.07; Y 2.13; T 2.31; H 2.23; C 1.64; F 2.76; P 1.73; R 1.47; N 1.92; Q 2.33; S 1.65; K 2.23; D 2.4; G 2.24; E 1.53; I 3.1
D11: G 1.55; A 2.34; F 3.09; C 2.48; E 3.38
F9: A 1.65; D 1.77; E 1.44; K 2.52; I 1.62; P 2.13; W 1.28; Y 1.5; H 1.84; V 2.37; S 2.19; M 1.99; G 1.67; L 2.27; R 2.83; T 1.84; Q 2.38; C 2.58; N 2.86
